One block for each binder: values may come before it.
Molecular target: Biotinylated BTN3A1 ectodomain + avitag (Homo sapiens, UniProt O00481, biotin on the C-terminal BirA biotinylation sequence)
Test: BLI

Sequence of Biotinylated BTN3A1 ectodomain + avitag (O00481 whole entry, looked up, the tested form may be a part): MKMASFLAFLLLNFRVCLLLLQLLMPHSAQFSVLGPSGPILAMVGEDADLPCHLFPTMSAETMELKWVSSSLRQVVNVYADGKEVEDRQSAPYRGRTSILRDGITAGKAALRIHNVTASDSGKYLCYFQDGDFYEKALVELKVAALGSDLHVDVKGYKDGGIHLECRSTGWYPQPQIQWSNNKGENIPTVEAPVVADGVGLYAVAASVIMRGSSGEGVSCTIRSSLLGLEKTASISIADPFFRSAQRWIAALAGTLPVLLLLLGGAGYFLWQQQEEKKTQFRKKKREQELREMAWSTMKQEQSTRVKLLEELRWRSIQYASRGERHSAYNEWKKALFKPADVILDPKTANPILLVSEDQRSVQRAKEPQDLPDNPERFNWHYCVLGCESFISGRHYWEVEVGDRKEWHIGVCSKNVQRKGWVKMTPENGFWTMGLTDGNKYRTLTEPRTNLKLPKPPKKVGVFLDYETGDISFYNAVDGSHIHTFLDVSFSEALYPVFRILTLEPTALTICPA

binding result: binds
B1: 103.2 mAb (antibody, V domains shown)
VH: QVQLQQSGAEVVRPGTSVKVSCKASGYAFTSYLIHWIKQRPGQGLEWIGVINPRSGDSHYNEKFKDRTTLTADQSSSTAYMQLSSLTSDDSAVYFCARSDYGAYWGQGTLVTVSA
VL: DIVLTQSPVTLSVTPGDSVSLSCRASQSISNNLHWYRQKSHESPRLLIKYASQSIFGIPSRFSGSGSGTEFTLSINSVETEDFGIYFCQQSNSWPHTFGTGTKLELK

binding result: binds
B2: 103.2^30 mAb hinge variant (antibody, V domains shown)
VH: B1 VH
VL: B1 VL

binding result: binds
B3: 103.2^10 mAb hinge variant (antibody, V domains shown)
VH: B1 VH
VL: B1 VL

binding result: binds
B4: 103.2^15 mAb hinge variant (antibody, V domains shown)
VH: B1 VH
VL: B1 VL

binding result: binds
B5: 103.2^5 mAb hinge variant (antibody, V domains shown)
VH: B1 VH
VL: B1 VL

From article PMC11982570 (Scientific Reports, 2025)
